Reference: paper PMC6305201

Key:
[1] = biological target: glycophorin A on red blood cells (human (endogenous in red blood cells)) (UniProt P02724)
[2] = biological target: glycophorin A on red blood cells (human (endogenous in red blood cells)) (UniProt P02724); remark: listed apart in the source

For “recombinant soluble region II (RII) of EBA-175 (domain or fragment)”, the lowest concentration of RII at which RBC clustering was seen (confocal live imaging, picomolar and low nanomolar RII) [1] was 0.3 nM and the mean cluster area of RBCs under flow (1 dyn/cm^2), RII 1, 10 and 100 nM [2] was 1140 µm^2.
